Data taken from IntAct's records for PubMed 12681510.

B1: Rho guanine nucleotide exchange factor 1 (Homo sapiens), Q92888 (parent)
chain: MEDFARGAASPGPSRPGLVPVSIIGAEDEDFENELETNSEEQNSQFQSLEQVKRRPAHLMALLQHVALQFEPGPLLCCLHADMLGSLGPKEAKKAFLDFYHSFLEKTAVLRVPVPPNVAFELDRTRADLISEDVQRRFVQEVVQSQQVAVGRQLEDFRSKRLMGMTPWEQELAQLEAWVGRDRASYEARERHVAERLLMHLEEMQHTISTDEEKSAAVVNAIGLYMRHLGVRTKSGDKKSGRNFFRKKVMGNRRSDEPAKTKKGLSSILDAARWNRGEPQVPDFRHLKAEVDAEKPGATDRKGGVGMPSRDRNIGAPGQDTPGVSLHPLSLDSPDREPGADAPLELGDSSPQGPMSLESLAPPESTDEGAETESPEPGDEGEPGRSGLELEPEEPPGWRELVPPDTLHSLPKSQVKRQEVISELLVTEAAHVRMLRVLHDLFFQPMAECLFFPLEELQNIFPSLDELIEVHSLFLDRLMKRRQESGYLIEEIGDVLLARFDGAEGSWFQKISSRFCSRQSFALEQLKAKQRKDPRFCAFVQEAESRPRCRRLQLKDMIPTEMQRLTKYPLLLQSIGQNTEEPTEREKVELAAECCREILHHVNQAVRDMEDLLRLKDYQRRLDLSHLRQSSDPMLSEFKNLDITKKKLVHEGPLTWRVTKDKAVEVHVLLLDDLLLLLQRQDERLLLKSHSRTLTPTPDGKTMLRPVLRLTSAMTREVATDHKAFYVLFTWDQEAQIYELVAQTVSERKNWCALITETAGSLKVPAPASRPKPRPSPSSTREPLLSSSENGNGGRETSPADARTERILSDLLPFCRPGPEGQLAATALRKVLSLKQLLFPAEEDNGAGPPRDGDGVPGGGPLSPARTQEIQENLLSLEETMKQLEELEEEFCRLRPLLSQLGGNSVPQPGCT

Variants of: B1
Conditions: with gna13_human GNA13, Q14344
Sequence of gna13_human GNA13, Q14344 (Q14344 whole entry): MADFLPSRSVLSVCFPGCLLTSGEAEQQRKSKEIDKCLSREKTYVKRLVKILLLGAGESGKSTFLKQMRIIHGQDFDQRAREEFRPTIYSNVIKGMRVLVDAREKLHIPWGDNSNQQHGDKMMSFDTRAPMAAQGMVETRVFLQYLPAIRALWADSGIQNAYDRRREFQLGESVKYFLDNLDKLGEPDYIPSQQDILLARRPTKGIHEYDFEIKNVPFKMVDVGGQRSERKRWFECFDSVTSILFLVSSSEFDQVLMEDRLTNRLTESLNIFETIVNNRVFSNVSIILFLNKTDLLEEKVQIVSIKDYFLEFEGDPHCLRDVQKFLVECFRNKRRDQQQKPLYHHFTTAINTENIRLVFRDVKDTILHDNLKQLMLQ

| Variant | effect of a mutation on the interaction |
| --- | --- |
| E27A;E29A | decreasing interaction |

Variants of: B1
Conditions: with gna13_human GNA13, Q14344
Remark: another data set of the same source

| Variant | effect of a mutation on the interaction |
| --- | --- |
| E27A;E29A | decreasing interaction |
